Results on two molecules are retold here after patent US20090246142A1 (published 2009).

Square brackets hold non-standard residues; d marks the D form. pY = N[C@@H](Cc1ccc(OP(=O)(O)O)cc1)C(=O)O; Ahx = NCCCCCC(=O)O

In assay [1] the target is T1, Crk SH2 domain with an N-terminal cysteine (cys-SH2), conjugated to iron oxide nanoparticles (SH2 TSACs) (UniProt P46108 13-118, limits assumed, N-terminal cysteine added by genetic modification and conjugated to aminated nanoparticles through NHS-PEO12-maleimide).
T1 construct: domain: SH2 domain; also called cysteine-SH2; Crk-SH2 TSACs
Description: DLS of nanoparticle assembly in the presence of Abl kinase.

The target of assay [2] is T1, Crk SH2 domain with an N-terminal …. The assay can be described thus: DLS of nanoparticle assembly.

T1 sequence (P46108 13-118 limits assumed): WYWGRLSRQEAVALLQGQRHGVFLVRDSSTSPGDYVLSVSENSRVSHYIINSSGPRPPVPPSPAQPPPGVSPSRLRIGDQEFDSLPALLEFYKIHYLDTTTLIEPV

B1: TAMRA-(Ahx)SRVGEEEHVFSFPNKQKSAEC-CONH2 (Abl substrate with the tyrosine replaced by phenylalanine) on nanoparticles (F-Abl TSACs) (peptide)
peptide: {TAMRA-Ahx}-SRVGEEEHVFSFPNKQKSAEC-NH2
modifications: not fully specified (residue 21); printed as TAMRA-(Ahx)SRVGEEEHVFSFPNKQKSAEC-CONH2; also: Cys conjugated to nanoparticle via NHS-PEO12-maleimide
notes: also called phenylalanine-Abl substrate TSACs; phenylalanine substrate TSACs
Regarding B1, in assay [1], the binding result was “no binding (tested: 10 µg Fe/ml (12 nM TSAC concentration))”.

B2: TAMRA-(Ahx)EAIpYAAPFAKKKC-CONH2 (non-binding Abl substrate, phosphorylated) on nanoparticles (peptide)
peptide: {TAMRA-Ahx}-EAI[pY]AAPFAKKKC-NH2
modifications: not fully specified (residue 13); also: Cys conjugated to nanoparticle via NHS-PEO12-maleimide
Regarding B2, the binding result in assay [2] is reported as “no binding (tested: 10 µg Fe/ml (12 nM TSAC concentration))”.
